Test results from patent US20260042834A1 (HBM ALPHA THERAPEUTICS, published 2026).

T1: corticotropin-releasing hormone (CRH) peptide (human and mouse (same sequence), not fully specified)
T1 peptide: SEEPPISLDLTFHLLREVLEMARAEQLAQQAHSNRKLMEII


Target: T1, corticotropin-releasing hormone (CRH) …
Experiment: cell-based or functional assay

| Binder | hCRHR1 Luciferase Reporter Assay IC50 [nM] |
| --- | --- |
| PR302309-2 (antibody, human IgG1, kappa, V domains shown) VH: QIQLVQSGPELKKPGETVKISCKASGYTFTNYGMNWVKQAPGKVLKWMGWINTYTGEPIYTDDFKGRFAFSLETSASTAYLQINNLKNEDTATYFCSRSTMITTGGVFAYWGQGTLVTVSA VL: DVVMTQSPLSLPVTLGQPASISCRSSQTIVHSDGNTYLEWYQQRPGQSPRLLIYKVSNRFSGVPDRFSGSGSGTDFTLKISRVEAEDLGVYYCFQGSHVPWTFGGGTKVEIKR | 0.773 |
| PR302309-18 (antibody, human IgG1, kappa, V domains shown) VH: QVQLVQSGAEVKKPGASVKVSCKASGYTFTNYGMNWVRQAPGQRLEWMGWINTYTGEPIYTDDFKGRVTITRDTSASTAYMELSSLRSEDTAVYYCARSTMITTGGVFAYWGQGTLVTVSS VL: DVVMTQSPLSLPVTLGQPASISCRSSQTIVHSDGNTYLEWYQQRPGQSPRLLIYKVSNRFSGVPDRFSGSGSGTDFTLKISRVEAEDLGVYYCFQGSHVPWTFGGGTKVEIKR | 1.73 |
| PR302309-14 (antibody, human IgG1, kappa, V domains shown) VH: QIQLVQSGSELKKPGASVKVSCKASGYTFTNYGMNWVRQAPGQGLEWMGWINTYTGEPIYTDDFKGRFVFSLDTSVSTAYLQISSLKAEDTAVYYCSRSTMITTGGVFAYWGQGTLVTVSS VL: DVLMAQTPLSLPVSLGDQASISCRSSQTIVHSDGNTYLEWYLQKPGQSPKLLIYKVSNRFSGVPDRFSGSGSGTDFTLKISRVEAEDLGVYYCFQGSHVPWTFGGGTKLEIKR | 1.68 |
| PR302309-21 (antibody, human IgG1, kappa, V domains shown) VH: QIQLVQSGAEVKKPGASVKVSCKASGYTFTNYGMNWVRQAPGQRLEWMGWINTYTGEPIYTDDFKGRVTITLDTSASTAYMELSSLRSEDTAVYYCSRSTMITTGGVFAYWGQGTLVTVSS VL: DVVMTQTPLSSPVTLGQPASISCRSSQTIVHSDGNTYLEWYQQRPGQPPRLLIYKVSNRFSGVPDRFSGSGAGTDFTLKISRVEAEDLGVYYCFQGSHVPWTFGGGTKVEIKR | 8.44 |
| PR302309-12 (antibody, human IgG1, kappa, V domains shown) VH: QIQLVQSGSELKKPGASVKVSCKASGYTFTNYGMNWVRQAPGQGLEWMGWINTYTGEPIYTDDFKGRFVFSLDTSVSTAYLQISSLKAEDTAVYYCSRSTMITTGGVFAYWGQGTLVTVSS VL: DVVMTQTPLSSPVTLGQPASISCRSSQTIVHSDGNTYLEWYQQRPGQPPRLLIYKVSNRFSGVPDRFSGSGAGTDFTLKISRVEAEDLGVYYCFQGSHVPWTFGGGTKVEIKR | 4.47 |
| PR302309-17 (antibody, human IgG1, kappa, V domains shown) VH: QVQLVQSGSELKKPGASVKVSCKASGYTFTNYGMNWVRQAPGQGLEWMGWINTYTGEPIYTDDFKGRFVFSLDTSVSTAYLQISSLKAEDTAVYYCARSTMITTGGVFAYWGQGTLVTVSS VL: DVVMTQSPLSLPVTLGQPASISCRSSQTIVHSDGNTYLEWYQQRPGQSPRLLIYKVSNRFSGVPDRFSGSGSGTDFTLKISRVEAEDLGVYYCFQGSHVPWTFGGGTKVEIKR | 6.69 |
| PR302309-7 (antibody, human IgG1, kappa, V domains shown) VH: QIQLVQSGSELKKPGASVKVSCKASGYTFTNYGMNWVRQAPGQGLEWMGWINTYTGEPIYTDDFKGRFVFSLDTSVSTAYLQISSLKAEDTAVYYCSRSTMITTGGVFAYWGQGTLVTVSS VL: DVVMTQSPLSLPVTLGQPASISCRSSQTIVHSDGNTYLEWFQQRPGQSPRRLIYKVSNRFSGVPDRFSGSGSGTDFTLKISRVEAEDVGVYYCFQGSHVPWTFGGGTKVEIKR | 6.38 |
| PR302309-6 (antibody, human IgG1, kappa, V domains shown) VH: QIQLVQSGPELKKPGETVKISCKASGYTFTNYGMNWVKQAPGKVLKWMGWINTYTGEPIYTDDFKGRFAFSLETSASTAYLQINNLKNEDTATYFCSRSTMITTGGVFAYWGQGTLVTVSA VL: DVVMTQTPLSSPVTLGQPASISCRSSQTIVHSDGNTYLEWYQQRPGQPPRLLIYKVSNRFSGVPDRFSGSGAGTDFTLKISRVEAEDLGVYYCFQGSHVPWTFGGGTKVEIKR | 1.08 |
| PR302309-16 (antibody, human IgG1, kappa, V domains shown) VH: QIQLVQSGAEVKKPGASVKVSCKASGYTFTNYGMNWVRQAPGQRLEWMGWINTYTGEPIYTDDFKGRVTITLDTSASTAYMELSSLRSEDTAVYYCSRSTMITTGGVFAYWGQGTLVTVSS VL: DVLMAQTPLSLPVSLGDQASISCRSSQTIVHSDGNTYLEWYLQKPGQSPKLLIYKVSNRFSGVPDRFSGSGSGTDFTLKISRVEAEDLGVYYCFQGSHVPWTFGGGTKLEIKR | 5.47 |
| PR302309-4 (antibody, human IgG1, kappa, V domains shown) VH: QIQLVQSGPELKKPGETVKISCKASGYTFTNYGMNWVKQAPGKVLKWMGWINTYTGEPIYTDDFKGRFAFSLETSASTAYLQINNLKNEDTATYFCSRSTMITTGGVFAYWGQGTLVTVSA VL: DVVMTQTPLSLSVTPGQPASISCRSSQTIVHSDGNTYLEWYLQKPGQSPQLLIYKVSNRFSGVPDRFSGSGSGTDFTLKISRVEAEDLGVYYCFQGSHVPWTFGGGTKVEIKR | 1.26 |
| PR302309-5 (antibody, human IgG1, kappa, V domains shown) VH: QIQLVQSGPELKKPGETVKISCKASGYTFTNYGMNWVKQAPGKVLKWMGWINTYTGEPIYTDDFKGRFAFSLETSASTAYLQINNLKNEDTATYFCSRSTMITTGGVFAYWGQGTLVTVSA VL: DIVMTQTPLSSPVTLGQPASISCRSSQTIVHSDGNTYLEWLQQRPGQPPRLLIYKVSNRFSGVPDRFSGSGAGTDFTLKISRVEAEDVGVYYCFQGSHVPWTFGGGTKVEIKR | 0.454 |

More lines, now with the values ahead:

| hCRHR1 Luciferase Reporter Assay IC50 [nM] | Binder |
| --- | --- |
| 3.2 | PR302309-10 (antibody, human IgG1, kappa, V domains shown) VH: QIQLVQSGSELKKPGASVKVSCKASGYTFTNYGMNWVRQAPGQGLEWMGWINTYTGEPIYTDDFKGRFVFSLDTSVSTAYLQISSLKAEDTAVYYCSRSTMITTGGVFAYWGQGTLVTVSS VL: DVVMTQTPLSLSVTPGQPASISCRSSQTIVHSDGNTYLEWYLQKPGQSPQLLIYKVSNRFSGVPDRFSGSGSGTDFTLKISRVEAEDLGVYYCFQGSHVPWTFGGGTKVEIKR |
| 10.5 | PR302309-15 (antibody, human IgG1, kappa, V domains shown) VH: QVQLVQSGAEVKKPGASVKVSCKASGYTFTNYGMNWVRQAPGQRLEWMGWINTYTGEPIYTDDFKGRVTITRDTSASTAYMELSSLRSEDTAVYYCARSTMITTGGVFAYWGQGTLVTVSS VL: DVLMAQTPLSLPVSLGDQASISCRSSQTIVHSDGNTYLEWYLQKPGQSPKLLIYKVSNRFSGVPDRFSGSGSGTDFTLKISRVEAEDLGVYYCFQGSHVPWTFGGGTKLEIKR |
| 2.22 | PR302309-3 (antibody, human IgG1, kappa, V domains shown) VH: QIQLVQSGPELKKPGETVKISCKASGYTFTNYGMNWVKQAPGKVLKWMGWINTYTGEPIYTDDFKGRFAFSLETSASTAYLQINNLKNEDTATYFCSRSTMITTGGVFAYWGQGTLVTVSA VL: DIVMTQTPLSLSVTPGQPASISCRSSQTIVHSDGNTYLEWYLQKPGQSPQLLIYKVSNRFSGVPDRFSGSGSGTDFTLKISRVEAEDVGVYYCFQGSHVPWTFGGGTKVEIKR |
| 2.12 | PR302309-11 (antibody, human IgG1, kappa, V domains shown) VH: QIQLVQSGSELKKPGASVKVSCKASGYTFTNYGMNWVRQAPGQGLEWMGWINTYTGEPIYTDDFKGRFVFSLDTSVSTAYLQISSLKAEDTAVYYCSRSTMITTGGVFAYWGQGTLVTVSS VL: DIVMTQTPLSSPVTLGQPASISCRSSQTIVHSDGNTYLEWLQQRPGQPPRLLIYKVSNRFSGVPDRFSGSGAGTDFTLKISRVEAEDVGVYYCFQGSHVPWTFGGGTKVEIKR |
| 1.7 | PR302309-8 (antibody, human IgG1, kappa, V domains shown) VH: QIQLVQSGSELKKPGASVKVSCKASGYTFTNYGMNWVRQAPGQGLEWMGWINTYTGEPIYTDDFKGRFVFSLDTSVSTAYLQISSLKAEDTAVYYCSRSTMITTGGVFAYWGQGTLVTVSS VL: DVVMTQSPLSLPVTLGQPASISCRSSQTIVHSDGNTYLEWYQQRPGQSPRLLIYKVSNRFSGVPDRFSGSGSGTDFTLKISRVEAEDLGVYYCFQGSHVPWTFGGGTKVEIKR |
| 7.23 | PR302309-13 (antibody, human IgG1, kappa, V domains shown) VH: QVQLVQSGSELKKPGASVKVSCKASGYTFTNYGMNWVRQAPGQGLEWMGWINTYTGEPIYTDDFKGRFVFSLDTSVSTAYLQISSLKAEDTAVYYCARSTMITTGGVFAYWGQGTLVTVSS VL: DVLMAQTPLSLPVSLGDQASISCRSSQTIVHSDGNTYLEWYLQKPGQSPKLLIYKVSNRFSGVPDRFSGSGSGTDFTLKISRVEAEDLGVYYCFQGSHVPWTFGGGTKLEIKR |
| 3.07 | PR302309-20 (antibody, human IgG1, kappa, V domains shown) VH: QIQLVQSGAEVKKPGASVKVSCKASGYTFTNYGMNWVRQAPGQRLEWMGWINTYTGEPIYTDDFKGRVTITLDTSASTAYMELSSLRSEDTAVYYCSRSTMITTGGVFAYWGQGTLVTVSS VL: DVVMTQTPLSLSVTPGQPASISCRSSQTIVHSDGNTYLEWYLQKPGQSPQLLIYKVSNRFSGVPDRFSGSGSGTDFTLKISRVEAEDLGVYYCFQGSHVPWTFGGGTKVEIKR |
| 4.83 | PR302309-19 (antibody, human IgG1, kappa, V domains shown) VH: QIQLVQSGAEVKKPGASVKVSCKASGYTFTNYGMNWVRQAPGQRLEWMGWINTYTGEPIYTDDFKGRVTITLDTSASTAYMELSSLRSEDTAVYYCSRSTMITTGGVFAYWGQGTLVTVSS VL: DVVMTQSPLSLPVTLGQPASISCRSSQTIVHSDGNTYLEWYQQRPGQSPRLLIYKVSNRFSGVPDRFSGSGSGTDFTLKISRVEAEDLGVYYCFQGSHVPWTFGGGTKVEIKR |
| 6.08 | PR302309-9 (antibody, human IgG1, kappa, V domains shown) VH: QIQLVQSGSELKKPGASVKVSCKASGYTFTNYGMNWVRQAPGQGLEWMGWINTYTGEPIYTDDFKGRFVFSLDTSVSTAYLQISSLKAEDTAVYYCSRSTMITTGGVFAYWGQGTLVTVSS VL: DIVMTQTPLSLSVTPGQPASISCRSSQTIVHSDGNTYLEWYLQKPGQSPQLLIYKVSNRFSGVPDRFSGSGSGTDFTLKISRVEAEDVGVYYCFQGSHVPWTFGGGTKVEIKR |
